Experiments:
[1] = target: T1, HaloTag-fused talin1 (HT-talin1), endogenous knock-in in mouse primary T cells (mouse (endogenous knock-in in mouse T …, UniProt P26039 1-2541, HaloTag labelled with HT SaraFluor 650T Ligand)); assay: naive T cells, on MAdCAM1
[2] = target: T1, HaloTag-fused talin1 (HT-talin1), …; assay: activated T cells, on MAdCAM1

koff [1]: 0.576 s⁻¹
koff [2]: 0.61 s⁻¹
B1: α4/β7 integrin, endogenous on mouse primary T cells (receptor)
chain 1: YNLDPENALLYQGPSGTLFGYSVVLHSHGSKRWLIVGAPTASWLSNASVVNPGAIYRCGIRKNPNQTCEQLQSGSPSGEPCGKTCLEERDNQWLGVTLSRQPGENGSIVTCGHRWKNIFYMKSDNKLPTGICYVMPSDLRTELSKRMAPCYKDYTRKFGENFASCQAGISSFYTQDLIVMGAPGSSYWTGTVFVYNITTNQYKAFVDRQNQVKFGSYLGYSVGAGHFRSPHTTEVVGGAPQHEQIGKAYIFSIDENELNIVYEMKGKKLGSYFGASVCAVDLNADGFSDLLVGAPMQSTIREEGRVFVYINSGMGAVMVEMERVLVGSDKYAARFGESIANLGDIDNDGFEDIAIGAPQEDDLRGAVYIYNGRVDGISSTYSQRIEGQQISKSLRMFGQSISGQIDADNNGYVDVAVGAFQSDSAVLLRTRPVVIVEASLSHPESVNRTKFDCTENGLPSVCMHLTLCFSYKGKEVPGYIVLFYNVSLDVHRKAESPSRFYFFSNGTSDVITGSIRVSSSGEKCRTHQAFMRKDVRDILTPIHVEATYHLGHHVITKRNTEEFPPLQPILQQKKEKDVIRKMINFARFCAYENCSADLQVSAKVGFLKPYENKTYLAVGSMKTIMLNVSLFNAGDDAYETTLNVQLPTGLYFIKILDLEEKQINCEVTESSGIVKLACSLGYIYVDRLSRIDISFLLDVSSLSRAHEDLSISVHASCENEGELDQVRDNRVTLTIPLRYEVMLTVHGLVNPTSFVYGSSEENEPETCMAEKLNLTFHVINTGISMAPNVSVKIMVPNSFLPQDDKLFNVLDVQTTTGQCHFKHYGRECTFAQQKGIAGTLTDIVKFLSKTDKRLLYCMKADQHCLDFLCNFGKMESGKEASVHIQLEGRPSILEMDETSSLKFEIKATAFPEPHPKVIELNKDENVAHVFLEGLHHQRPKRHFTIIIITISLLLGLIVLLLISCVMWKAGFFKRQYKSILQEENRRDSWSYVNSKSNDD
chain 2: ELDTKITSSGEAAEWEDPDLSLQGSCQPVPSCQKCILSHPSCAWCKQLNFTASGEAEARRCARREELLARGCPAQELEEPRGRQEVLQDKPLSQGDRGEGATQLAPQRIRVTLRPGEPQKFRVRFLRAAGYPVDLYYLMDLSYSMKDDLERVRQLGHALLVRLQEVTHSVRIGFGSFVDKTVLPFVSTVPSKLHHPCPSRLERCQPPFSFHHVLSLTGDAQAFEREVGRQNVSGNLDSPEGGFDAILQAALCQEQIGWRNVSRLLVFTSDDTFHTAGDGKLGGIFMPSDGRCHLDSNGVYTNSAEFDYPSVGQVAQALTAANIQPIFAVTGATLPVYQELRQLIPKSAVGELSEDSSNVVQLIMDAYDSLSSTVTLEHSPLPPGVSISFESHCKGPEKTEGEAGDRGQCNDVRVNQTVDFWVTLQATHCLPEAHVLRLWALGFSEELTVELHTVCDCNCGDAQPHAPYCSDGQGDLQCGICSCAPGRLGQLCECSEADLSSPDLESGCRAPNGTGPLCSGKGRCQCGRCSCSGQSSGRLCECDDASCERHEGILCGGFGHCQCGVCHCHANHTGRACECSKSVDSCVSPEGGLCSGHGYCKCNRCQCLDGYYGALCDQCLGCKSPCEQYRDCAECGAFGTGPLAANCSVVCADVNVTLTLAPNLDDGWCKERTIDNQLFFFLVEHAASGIVLRVRPQEKGVDHTRAIILGCTGGIVAVGLGLVLAYRLSVEIYDRREYRRFEKEQQQLNWKQDNNPLYKSAITTTVNPRFQGTNGRSPSLSLTREAD

Reference: publication PMC12637224, “The nonconserved integrin cytoplasmic region determines integrin subtype–specific characteristics by modulating talin1 binding kinetics” (The Journal of Biological Chemistry, 2025)
